Assay results taken from PMC3696110, “Hsp70 Oligomerization Is Mediated by an Interaction between the Interdomain Linker and the Substrate-Binding Domain” (PLoS ONE, 2013).

Tests used:
[1] = previously reported; ref [S3]; cited from earlier work
Experimental: Supplementary file pone.0067961.s005.tif: Figure S4 Concentration dependency of the analytical SEC chromatograms of the 'C-term' variant. The protein concentrations used were 1µM (black line), 2µM (orange line), 5 µM (pink line), 10 µM (cyan line), 70 µM (red line) and 125 µM (green line). Essentially the same elution profile was found for all the protein concentrations used. At the top the chromatogram the previously reported Stokes radii of the standard proteins used to calibrate the column are reported: conalbumin (40.4 Å), ovalbumin (30.5 Å), carbonic anhydrase (23.6 Å) [S3], ribonuclease ...

[2] = nESI-MS relative populations of oligomeric forms; assay type: physicochemical, human; conditions: 6-15 µM protein, 150 mM ammonium acetate, pH 7.4, estimated error 5% (SD of 3-4 independent experiments)
Experimental: Prior to MS analysis, samples were buffer exchanged into 150 mM ammonium acetate, pH 7.4, using Micro Bio-spin 6 columns (Bio-Rad, Digilab Division, Cambridge, MA, USA). For all the experiments protein concentrations ranging from 6 to 18 µM were used. In the case of the substrate binding experiments, proteins were analyzed in the presence of a 1: 1 molar ratio of the NR peptide; this substrate concentration, lower than in the SEC experiments, was chosen to ensure adequate resolution of the various charge state series, which is critical for unambiguous assignment of substrate-bound states. Due to suppression effects during nESI ionization, a relatively limited set of molar ratios could be investigated by in this way.
nESI-MS spectra were obtained according to a previously published protocol on an orthogonal time-of-flight mass spectrometer with a Z-spray source (LCT, Waters, Manchester, UK) in positive ion mode using the following parameters: capillary voltage, 1500 V; sample cone voltage, 120 V (unless otherwise specified); extraction cone voltage, 1V; and ion transfer stage pressure, 8.8 mbar. Spectra were calibrated externally using a 33 mg/ml solution of cesium iodide. Data were acquired and processed with MassLynx software (Waters, Manchester, UK), and are shown with minimal smoothing and without background subtraction. The relative abundances of the different oligomeric states were estimated from the intensities of the most abundant charge states for each construct and are expressed as a percentage of the total intensity.

[3] = Analytical SEC relative populations of oligomeric forms; assay type: physicochemical, human; conditions: Superdex 75, 4 °C, 50 mM Tris pH 7.4, 150 mM KCl
Experimental: (§1) Analytical SEC was performed at 4 °C using a Superdex 75 10/300 GL column (GE Healthcare LifeSciences, Little Chalfont, U.K.), which had previously been calibrated using a mixture of standard proteins (Gel Filtration LMW Calibration Kit; GE Healthcare LifeSciences, Little Chalfont, U.K.). Typically, samples of the various constructs contained 70 µM of protein in 50 mM Tris buffer at pH 7.4, with 150 mM KCl, 5 mM MgCl2 and were incubated for 15 min (unless otherwise specified) at room temperature before being loaded onto the column for analysis. To evaluate the reversibility of the oligomerization process, the different elution peaks obtained for each protein variant were subsequently analyzed after concentrating the different fractions using AmiconUltra-0.5, Ultracel-3 Membrane, 3 kDa (Millipore, Bedford, MA, USA). A similar analysis was also performed at 6 µM concentration for all the protein variants to allow for a direct comparison between the results obtained by SEC and MS experiments.
The influence of substrate binding on the oligomerization properties of all the variants was examined by using the well-characterized Hsp70 substrate, the NR peptide (NRLLLTG, Genemed Synthesis Inc., San Antonio, TX, USA). A 14-fold excess of the peptide was added in each case to a fresh protein sample, incubated for 1 h at room temperature, unless otherwise specified, and then loaded onto the Superdex 75 10/300 GL column for analysis. The relative quantities of the different protein species were estimated by analysing the chromatographic profile using a Gaussian function for each elution peak (OriginPro 8, Originlab, Northampton, MA, USA) and measuring the relative area under each peak.

[4] = Thermal denaturation monitored by far-UV CD; assay type: physicochemical, human
Experimental: Protein structural stability was analyzed by monitoring the CD signal at 222 nm upon thermal denaturation. Thermal runs were performed from 5 to 90 °C at a rate of 1 °C. min^-1. Data points were acquired every 0.1 °C with a response time of 2 s and a bandwidth of […]. After thermal denaturation, each protein sample was cooled to the starting temperature, and a second denaturation curve recorded in order to analyse the degree of reversibility of the denaturation process. Analysis of the thermal unfolding curves was performed assuming a three-state unfolding model.

[5] = Secondary structure content from far-UV CD; assay type: physicochemical, human; conditions: K2D software; 20 µM protein, 7 mM Tris pH 7.4, 170 mM KCl, 5 mM MgCl2; 25 °C
Experimental: Far-UV CD spectra for all protein variants were recorded using a Jasco J-810 spectropolarimeter equipped with a Peltier holder, using a 0.1 cm path length cuvette. Typically, samples contained 20 µM protein in 7 mM Tris buffer at pH 7.4, containing 170 mM KCl and 5 mM MgCl2. The far-UV CD spectra of all the variants in their native, thermally denatured and refolded states were recorded from 198 to 250 nm, and the spectrum of the buffer was systematically subtracted from the spectra of all protein samples. The secondary structure content was estimated from the far-UV CD spectrum for each protein variant using K2D software.

[6] = Tryptophan (W580) fluorescence emission; assay type: physicochemical, human; conditions: W580, excitation 295 nm
Experimental: Steady-state tryptophan fluorescence emission spectra of native, thermally denatured and refolded proteins were recorded from 300 to 400 nm, selectively exciting the only tryptophan residue in the SBD (W580) at 295 nm, using a Cary Eclipse spectrofluorimeter (Varian, Palo Alto, CA, USA). Excitation and emission band-passes were set to 5 nm each.

[7] = Analytical SEC, Stokes radius and oligomeric state; assay type: physicochemical, human
Experimental: as §1

[8] = 70 µM protein, 5 mM MgCl2, 15 min at room temperature, estimated error 3.5% (SD of 3-4 independent experiments)
[9] = 6-15 µM protein, 5 mM MgCl2, estimated error 3.5% (SD of 3-4 independent experiments)

B1: ribonuclease A: SEC standard protein (protein, UniProt P61823 27-150, looked up)
Ribonuclease pancreatic: KETAAAKFERQHMDSSTSAASSSNYCNQMMKSRNLTKDRCKPVNTFVHESLADVQAVCSQKNVACKNGQTNCYQSYSTMSITDCRETGSSKYPNCAYKTTQANKHIIVACEGNPYVPVHFDASV
Stokes radius of SEC standard protein [1]: 16.4 Å

B2: ovalbumin: SEC standard protein (protein, UniProt P01012 2-386, looked up)
Ovalbumin: GSIGAASMEFCFDVFKELKVHHANENIFYCPIAIMSALAMVYLGAKDSTRTQINKVVRFDKLPGFGDSIEAQCGTSVNVHSSLRDILNQITKPNDVYSFSLASRLYAEERYPILPEYLQCVKELYRGGLEPINFQTAADQARELINSWVESQTNGIIRNVLQPSSVDSQTAMVLVNAIVFKGLWEKAFKDEDTQAMPFRVTEQESKPVQMMYQIGLFRVASMASEKMKILELPFASGTMSMLVLLPDEVSGLEQLESIINFEKLTEWTSSNVMEERKIKVYLPRMKMEEKYNLTSVLMAMGITDVFSSSANLSGISSAESLKISQAVHAAHAEINEAGREVVGSAEAGVDAASVSEEFRADHPFLFCIKHIATNAVLFFGRCVSP
Stokes radius of SEC standard protein [1]: 30.5 Å

B3: conalbumin: SEC standard protein (protein, UniProt P02789 20-705, looked up)
Ovotransferrin: APPKSVIRWCTISSPEEKKCNNLRDLTQQERISLTCVQKATYLDCIKAIANNEADAISLDGGQAFEAGLAPYKLKPIAAEVYEHTEGSTTSYYAVAVVKKGTEFTVNDLQGKTSCHTGLGRSAGWNIPIGTLLHRGAIEWEGIESGSVEQAVAKFFSASCVPGATIEQKLCRQCKGDPKTKCARNAPYSGYSGAFHCLKDGKGDVAFVKHTTVNENAPDQKDEYELLCLDGSRQPVDNYKTCNWARVAAHAVVARDDNKVEDIWSFLSKAQSDFGVDTKSDFHLFGPPGKKDPVLKDLLFKDSAIMLKRVPSLMDSQLYLGFEYYSAIQSMRKDQLTPSPRENRIQWCAVGKDEKSKCDRWSVVSNGDVECTVVDETKDCIIKIMKGEADAVALDGGLVYTAGVCGLVPVMAERYDDESQCSKTDERPASYFAVAVARKDSNVNWNNLKGKKSCHTAVGRTAGWVIPMGLIHNRTGTCNFDEYFSEGCAPGSPPNSRLCQLCQGSGGIPPEKCVASSHEKYFGYTGALRCLVEKGDVAFIQHSTVEENTGGKNKADWAKNLQMDDFELLCTDGRRANVMDYRECNLAEVPTHAVVVRPEKANKIRDLLERQEKRFGVNGSEKSKFMMFESQNKDLLFKDLTKCLFKVREGTTYKEFLGDKFYTVISSLKTCNPSDILQMCSFLEGK
Stokes radius of SEC standard protein [1]: 40.4 Å

B4: C-term: truncated human Hsp70 (540-641), C-terminal segment of helix B, helices C-E and disordered C-terminal region (protein, UniProt P0DMV8 540-641, looked up, fragment)
chain: NALESYAFNMKSAVEDEGLKGKISEADKKKVLDKCQEVISWLDANTLAEKDEFEHKRKELEQVCNPIISGLYQGAGGPGPGGFGAQGPKGGSGSGPTIEEVD
Dimer population [2]: 0%
Total oligomer population [2]: 0%
Trimer population [2]: 0%
Dimer population [3, 8]: 0%
Monomer population [3, 8]: 100%
Total oligomer population [3, 8]: 0%
Dimer population [3, 9]: 0%
Monomer population [3, 9]: 100%
Total oligomer population [3, 9]: 0%
∆Hm, 1st transition ([4]; CD 222 nm, 20 µM protein, 7 mM Tris pH 7.4, 170 mM KCl, 5 mM MgCl2, three-state fit (C-term two-state), SE of fit): 51.5 ± 1.5 kcal/mol
Tm, 1st transition ([4]; CD 222 nm, 5 to 90 °C at 1 °C/min, 20 µM protein, 7 mM Tris pH 7.4, 170 mM KCl, 5 mM MgCl2, three-state fit (C-term two-state), SE of fit): 49.9 ± 0.2 °C
Reversibility of thermal unfolding ([4]; far-UV CD, second denaturation curve after cooling): reversibly
Random-coil content estimated from far-UV CD [5]: 33%
α-helix content estimated from far-UV CD [5]: 60%
β-sheet content estimated from far-UV CD [5]: 7%
Red-shift of fluorescence emission maximum, native to refolded [6]: not observed
Oligomeric state ([7]; analytical SEC, 1 to 125 µM, single elution peak at 11.8 ml): monomeric
Stokes radius ([7]; analytical SEC, from retention volume): 21.4 Å
Ability to dimerize in isolation ([7]; under experimental conditions used): unable to dimerize in isolation
